Measurements reported in patent US20150225459A1 (ARCH CANCER THERAPEUTICS, published 2015).
Ends that are not written are not given here.

T1: LSALT phage (T7 phage displaying the LSALT peptide LSALTPSPSWLKYKAL) (also: displayed on T7 phage, fused to the coat protein)
T1 construct: The peptide is not naturally occurring; it is the out-of-frame product of Ube2n; also called Ube2n (LSALT) phage; LSALT-bacteriophage
T1 peptide: LSALTPSPSWLKYKAL


Biological target: T1, LSALT phage (T7 phage displaying the …)
Experiment: biopanning of a combinatorial M13 phage library against LSALT phage immobilized on nitrocellulose
Text: When the LSALT phage was immobilized on nitrocellulose and biopanned against with a combinatorial M13 phage library, the following peptides were isolated as peptides that bind specifically with the LSALT. These peptides provide potential targets for action of LSALT peptides, variants and modifications thereof.

Binder | binding result
MNVTPRQ (also called putative target of LSALT) [MNVTPRQ (SEQ ID NO: 11)] | binds
EQFTNLLDMTYA (also called putative target of LSALT) [EQFTNLLDMTYA (SEQ ID NO: 5)] | binds
IPPSYSATLPALR (also called putative target of LSALT) [IPPSYSATLPALR (SEQ ID NO: 4)] | binds
TNITESQQLNWR (also called putative target of LSALT) [TNITESQQLNWR (SEQ ID NO: 7)] | binds
LNTQTGK (also called putative target of LSALT) [LNTQTGK (SEQ ID NO: 15)] | binds
NERNSWH (also called putative target of LSALT) [NERNSWH (SEQ ID NO: 16)] | binds
FEQKKGT (also called putative target of LSALT) [FEQKKGT (SEQ ID NO: 8)] | binds
PTLPWKK (also called putative target of LSALT) [PTLPWKK (SEQ ID NO: 10)] | binds

Results, then the binder that gave them:

binding result | Binder
binds | EQFTNLLDMYTA (also called putative target of LSALT) [EQFTNLLDMYTA (SEQ ID NO: 3)]
binds | GLHNKTH (also called putative target of LSALT) [GLHNKTH (SEQ ID NO: 14)]
binds | DNTRVDT (also called putative target of LSALT) [DNTRVDT (SEQ ID NO: 9)]
binds | TTEHPRK (also called putative target of LSALT) [TTEHPRK (SEQ ID NO: 12)]
binds | HLPSIIPTMPYR (also called putative target of LSALT) [HLPSIIPTMPYR (SEQ ID NO: 2)]
binds | HATGTHGLSLSH (also called putative target of LSALT) [HATGTHGLSLSH (SEQ ID NO: 6)]
binds | LGPAHLY (also called putative target of LSALT) [LGPAHLY (SEQ ID NO: 13)]
